In patent US20200199241A1 (Chugai, published 2020):

T1: human FcγRIIb (human, UniProt P31994 43-217, limits assumed)
T1 construct: also called hFcgRIIb; FcγIIB
T1 sequence: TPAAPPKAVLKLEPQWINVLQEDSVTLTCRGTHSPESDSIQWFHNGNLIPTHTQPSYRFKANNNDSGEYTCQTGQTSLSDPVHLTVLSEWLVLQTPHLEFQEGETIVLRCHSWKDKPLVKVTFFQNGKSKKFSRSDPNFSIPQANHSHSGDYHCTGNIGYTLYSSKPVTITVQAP

B1: G237F (antibody)
heavy: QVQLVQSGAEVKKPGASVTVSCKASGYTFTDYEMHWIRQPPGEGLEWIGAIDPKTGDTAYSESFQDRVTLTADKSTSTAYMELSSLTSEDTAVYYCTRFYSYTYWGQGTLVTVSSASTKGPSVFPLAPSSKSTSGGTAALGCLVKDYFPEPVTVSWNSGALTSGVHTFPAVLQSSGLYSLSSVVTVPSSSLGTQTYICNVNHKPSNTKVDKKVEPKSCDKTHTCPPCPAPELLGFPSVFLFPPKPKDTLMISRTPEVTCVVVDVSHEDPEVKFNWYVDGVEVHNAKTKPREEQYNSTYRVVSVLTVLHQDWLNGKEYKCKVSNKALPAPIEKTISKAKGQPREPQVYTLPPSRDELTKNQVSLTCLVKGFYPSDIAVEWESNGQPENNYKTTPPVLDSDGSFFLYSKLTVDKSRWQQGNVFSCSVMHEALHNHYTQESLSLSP
light: DIVMTQSPLSLPVTPGEPASISCQASESLVHSNRNTYLHWYLQKPGQSPQLLIYKVSNRFSGVPDRFSGSGSGTDFTLKISRVEAEDVGVYYCSQNTHVPPTFGQGTKVEIERTVAAPSVFIFPPSDEQLKSGTASVVCLLNNFYPREAKVQWKVDNALQSGNSQESVTEQDSKDSTYSLSSTLTLSKADYEKHKVYACEVTHQGLSSPVTKSFNRGEC
notes: also called GpH7-B3 variant G237F/GpL16-k0; copies: 2 + 2
B2: L234Y (antibody)
heavy: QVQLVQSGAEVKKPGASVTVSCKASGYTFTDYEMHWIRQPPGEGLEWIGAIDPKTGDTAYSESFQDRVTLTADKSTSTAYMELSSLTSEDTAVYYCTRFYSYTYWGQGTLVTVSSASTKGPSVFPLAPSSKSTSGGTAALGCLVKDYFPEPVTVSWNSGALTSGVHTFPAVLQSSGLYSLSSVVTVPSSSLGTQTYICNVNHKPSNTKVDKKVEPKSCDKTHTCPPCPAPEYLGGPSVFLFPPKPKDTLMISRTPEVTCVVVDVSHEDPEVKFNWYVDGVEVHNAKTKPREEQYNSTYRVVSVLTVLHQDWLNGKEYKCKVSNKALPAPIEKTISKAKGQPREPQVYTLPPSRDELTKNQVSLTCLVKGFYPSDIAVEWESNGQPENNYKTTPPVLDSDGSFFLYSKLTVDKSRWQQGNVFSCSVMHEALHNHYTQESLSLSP
light: DIVMTQSPLSLPVTPGEPASISCQASESLVHSNRNTYLHWYLQKPGQSPQLLIYKVSNRFSGVPDRFSGSGSGTDFTLKISRVEAEDVGVYYCSQNTHVPPTFGQGTKVEIERTVAAPSVFIFPPSDEQLKSGTASVVCLLNNFYPREAKVQWKVDNALQSGNSQESVTEQDSKDSTYSLSSTLTLSKADYEKHKVYACEVTHQGLSSPVTKSFNRGEC
notes: also called GpH7-B3 variant L234Y/GpL16-k0; copies: 2 + 2
B3: G237W (antibody)
heavy: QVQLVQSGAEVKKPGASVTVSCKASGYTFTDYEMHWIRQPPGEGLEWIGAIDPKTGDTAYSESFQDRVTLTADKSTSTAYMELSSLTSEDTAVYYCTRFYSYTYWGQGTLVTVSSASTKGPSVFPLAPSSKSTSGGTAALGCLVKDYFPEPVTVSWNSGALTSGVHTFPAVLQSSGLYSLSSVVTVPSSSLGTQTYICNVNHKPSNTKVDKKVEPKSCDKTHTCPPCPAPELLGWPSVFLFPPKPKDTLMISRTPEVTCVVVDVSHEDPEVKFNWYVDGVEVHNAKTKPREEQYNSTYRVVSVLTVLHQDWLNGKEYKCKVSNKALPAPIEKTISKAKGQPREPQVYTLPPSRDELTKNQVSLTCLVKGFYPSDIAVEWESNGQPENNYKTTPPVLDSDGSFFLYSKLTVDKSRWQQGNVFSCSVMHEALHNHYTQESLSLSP
light: DIVMTQSPLSLPVTPGEPASISCQASESLVHSNRNTYLHWYLQKPGQSPQLLIYKVSNRFSGVPDRFSGSGSGTDFTLKISRVEAEDVGVYYCSQNTHVPPTFGQGTKVEIERTVAAPSVFIFPPSDEQLKSGTASVVCLLNNFYPREAKVQWKVDNALQSGNSQESVTEQDSKDSTYSLSSTLTLSKADYEKHKVYACEVTHQGLSSPVTKSFNRGEC
notes: also called GpH7-B3 variant G237W/GpL16-k0; copies: 2 + 2
B4: S239D (antibody)
heavy: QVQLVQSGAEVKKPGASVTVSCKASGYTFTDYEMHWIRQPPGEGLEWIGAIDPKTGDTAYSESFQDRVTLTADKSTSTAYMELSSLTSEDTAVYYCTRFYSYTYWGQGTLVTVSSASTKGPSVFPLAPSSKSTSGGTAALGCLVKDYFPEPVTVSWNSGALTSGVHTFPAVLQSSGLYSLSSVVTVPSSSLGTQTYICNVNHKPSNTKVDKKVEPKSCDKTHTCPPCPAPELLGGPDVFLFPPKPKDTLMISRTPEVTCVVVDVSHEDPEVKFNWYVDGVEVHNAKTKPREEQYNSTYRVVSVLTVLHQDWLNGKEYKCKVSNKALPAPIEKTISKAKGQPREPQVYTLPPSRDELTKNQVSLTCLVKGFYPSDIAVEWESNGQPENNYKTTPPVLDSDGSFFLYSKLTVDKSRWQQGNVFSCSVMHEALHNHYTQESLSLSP
light: DIVMTQSPLSLPVTPGEPASISCQASESLVHSNRNTYLHWYLQKPGQSPQLLIYKVSNRFSGVPDRFSGSGSGTDFTLKISRVEAEDVGVYYCSQNTHVPPTFGQGTKVEIERTVAAPSVFIFPPSDEQLKSGTASVVCLLNNFYPREAKVQWKVDNALQSGNSQESVTEQDSKDSTYSLSSTLTLSKADYEKHKVYACEVTHQGLSSPVTKSFNRGEC
notes: also called GpH7-B3 variant S239D/GpL16-k0; copies: 2 + 2

Biological target: T1, human FcγRIIb
Test: SPR (Biacore), amount of FcγRIIb bound to the captured antibody, relative to GpH7-B3/GpL16-k0 = 100

Row | Binder | binding result
1 | B1 | binds
2 | B2 | binds
3 | B3 | binds
4 | B4 | binds
